# Laboratory results published in patent publication US20040170619, “Gene regulation” (published 2004).
# B1: EPO B-A target site (dsDNA)
# DNA 1: TCTGGGGTGGGGGCTGGG
# DNA 2: CCCAGCCCCCACCCCAGA
# B2: TNFR1-4-2 target site (dsDNA)
# DNA 1: GTCGGATTGGTGGGTTGGGGGCACAAGGCA
# DNA 2: TGCCTTGTGCCCCCAACCCACCAATCCGAC
# What was measured:
# [1] = molecular target: EPOb-a-VP64 six-zinc-finger activator (synthetic construct); test: ELONA; binds tightly and specifically; 50 uM ZnCl2, PBS pH 7.0, salmon sperm competitor DNA; values only in figure; conditions: tags: SV40 NLS, VP64, c-myc 9E10, C-terminal HA for ELISA; label: biotin
# Protocol: (§1) DNA binding reactions contain the appropriate zinc finger peptide, biotinylated binding site (10 nM) and 5 μg competitor DNA (sonicated salmon sperm DNA), in a total volume of 50 μl, which contained: 1×PBS (pH 7.0), 1.25×10⁻³ U high affinity anti-HA-Peroxidase antibody (Boehringer Mannheim), 50 μM ZnCl₂, 0.01 mg/ml BSA, and 0.5% Tween 20. Incubations are performed at room temperature for 40 minutes. Black streptavidin-coated wells are blocked with 4% marvel for 1 hour. Binding reactions are added to the streptavidin-coated wells and incubated for a further 40 minutes at room temperature. Wells are washed 5 times in 100 μl wash buffer (1×PBS (pH 7.0), 50 µM ZnCl₂, 0.01 mg/ml BSA, and 0.5% Tween 20), and finally 50 μl QuantaBlu peroxidase substrate solution (Pierce) is added to detect bound HA-tagged zinc finger peptide. ELISA signals are read in a SPECTRAmax GeminiXS spectrophotometer (Molecular Devices) and analysed using SOFTmax Pro 3.1.2 (Molecular Devices).
# [2] = molecular target: TNFR1-4-2 six-zinc-finger DNA-binding domain (synthetic construct); test: ELONA; high affinity and specificity; 50 uM ZnCl2, PBS pH 7.0, 10 nM site, salmon sperm competitor DNA, room temperature; conditions: may carry C-terminal NLS-KOX1-c-myc in the ELISA construct; label: biotin
# TNFR1-4-2 six-zinc-finger DNA-binding domain (synthetic construct), sequence (chain, as listed by the source): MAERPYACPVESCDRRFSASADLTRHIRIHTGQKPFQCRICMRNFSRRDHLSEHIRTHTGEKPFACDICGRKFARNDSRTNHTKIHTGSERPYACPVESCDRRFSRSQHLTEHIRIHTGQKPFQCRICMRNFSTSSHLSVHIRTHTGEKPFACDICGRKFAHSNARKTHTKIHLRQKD
# Protocol: as §1
Binder,binding result [1],binding result [2]
B1,binds,
B2,,binds
